From patent publication US20140212436A1 (Xencor, published 2014) come the findings set out here.

One assay deals with T1, Fc region of IgE (UniProt P01854-1 105-428, limits assumed).
T1 construct: domain: Fc region of IgE; also called IgE Fc
Kind of assay: Biacore, antibody captured on protein A, IgE Fc as analyte. The method, then:
(§1) Variants were tested for receptor affinity using Biacore technology, also referred to as Biacore herein, a surface plasmon resonance (SPR) based technology for studying biomolecular interactions in real time. SPR measurements were performed using a Biacore 3000 instrument (Biacore, Piscataway, N.J.). A […] (Pierce Biotechnology) CM5 biosensor chip (Biacore) was generated using a standard primary amine coupling protocol. All measurements were performed using HBS-EP buffer (10 mM HEPES pH 7.4, 0.15 M NaCl, 3 mM EDTA, 0.005% vol/vol surfactant P20, Biacore). Antibodies at 20 nM or 50 nM in HBS-EP buffer were immobilized on the protein A/G surface and FcγRs were injected. After each cycle, the surface was regenerated by injecting glycine buffer (10 mM, pH 1.5). Data were processed by zeroing time and response before the injection of FcγR and by subtracting appropriate nonspecific signals (response of reference channel and injection of running buffer). Kinetic analyses were performed by global fitting of binding data with a 1:1 Langmuir binding model using BIAevaluation software (Biacore).
(§2) DNA encoding the Fc region of IgE, which contains the binding site for the anti-IgE antibodies used, was synthesized (Blue Heron Biotechnologies) and subcloned into the pTT5 vector. […] SPR measurements were performed using the protein A/antibody capture method described above, except that analyte was either FcγRIIb or the Fc region of IgE. Data acquisition and fitting are as described above.
(In general: Surface plasmon resonance follows binding to a sensor surface in real time, without labels.)

Assay [1] has as its target T2, recombinant human FcγRIIb protein (human, UniProt P31994 46-217).
T2 construct: Bought; injected as analyte in Biacore; also called CD32b
T2 sequence (looked up): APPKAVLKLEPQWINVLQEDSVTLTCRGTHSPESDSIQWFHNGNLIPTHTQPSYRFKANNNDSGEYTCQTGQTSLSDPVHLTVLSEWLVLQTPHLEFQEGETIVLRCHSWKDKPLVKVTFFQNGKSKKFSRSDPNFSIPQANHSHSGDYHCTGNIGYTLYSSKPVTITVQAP
Kind of assay: Biacore. The protocol:
as §1
DNA encoding the Fc region of IgE, which contains the binding site for the anti-IgE antibodies used, was synthesized (Blue Heron Biotechnologies) and subcloned into the pTT5 vector. […]

Assay [2] has as its target T2, recombinant human FcγRIIb protein. In words: Biacore, antibody captured on protein A. The protocol:
as §1, §2

T1 sequence (P01854 other isoform, or with tags, fused parts or gaps limits assumed): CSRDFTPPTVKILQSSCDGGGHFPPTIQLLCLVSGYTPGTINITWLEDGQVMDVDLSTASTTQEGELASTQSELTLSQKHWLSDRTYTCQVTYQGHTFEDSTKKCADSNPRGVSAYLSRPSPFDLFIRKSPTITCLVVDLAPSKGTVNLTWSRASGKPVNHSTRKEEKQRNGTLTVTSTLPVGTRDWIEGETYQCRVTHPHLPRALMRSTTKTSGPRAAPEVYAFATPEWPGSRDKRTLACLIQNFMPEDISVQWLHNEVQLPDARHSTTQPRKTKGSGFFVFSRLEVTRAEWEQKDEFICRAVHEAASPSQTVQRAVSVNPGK

B1: H1L1_MaE11 (novel humanized version of MaE11, anti-IgE antibody) (antibody)
heavy: not shown
light: DIQLTQSPSSLSASVGDRVTITCRASQSVDYDGDSYMNWYQQKPGQPPKLLIYAASYLGSEIPARFSGSGSGTDFTLTISSLQPEDFATYYCQQSHEDPYTFGAGTKLEIKRTVAAPSVFIFPPSDEQLKSGTASVVCLLNNFYPREAKVQWKVDNALQSGNSQESVTEQDSKDSTYSLSSTLTLSKADYEKHKVYACEVTHQGLSSPVTKSFNRGEC
notes: copies: 2 + 2
Usually Kd stands for the equilibrium constant for the complex coming apart. In the case of B1, the Kd with Fc region of IgE worked out at 0.061 nM; in assay [2] it was 2000 nM. Besides, the Fold in assay [1] came out at 1.

B2: MaE11_H1L1_IgG1_G236R/L328R (antibody)
heavy: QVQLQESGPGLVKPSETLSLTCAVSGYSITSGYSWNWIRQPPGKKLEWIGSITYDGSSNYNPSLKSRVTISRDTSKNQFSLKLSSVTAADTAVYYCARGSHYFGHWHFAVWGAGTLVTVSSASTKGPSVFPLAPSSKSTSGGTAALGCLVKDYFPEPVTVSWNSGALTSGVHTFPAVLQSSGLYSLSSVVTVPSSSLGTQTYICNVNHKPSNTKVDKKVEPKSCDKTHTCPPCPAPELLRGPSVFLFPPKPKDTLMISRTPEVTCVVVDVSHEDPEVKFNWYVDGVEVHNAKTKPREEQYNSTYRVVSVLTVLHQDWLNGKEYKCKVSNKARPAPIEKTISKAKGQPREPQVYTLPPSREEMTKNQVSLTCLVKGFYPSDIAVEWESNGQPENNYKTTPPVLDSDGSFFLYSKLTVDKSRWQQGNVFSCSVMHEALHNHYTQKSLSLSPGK
light: DIQLTQSPSSLSASVGDRVTITCRASQSVDYDGDSYMNWYQQKPGQPPKLLIYAASYLGSEIPARFSGSGSGTDFTLTISSLQPEDFATYYCQQSHEDPYTFGAGTKLEIKRTVAAPSVFIFPPSDEQLKSGTASVVCLLNNFYPREAKVQWKVDNALQSGNSQESVTEQDSKDSTYSLSSTLTLSKADYEKHKVYACEVTHQGLSSPVTKSFNRGEC
notes: anti-IgE; also called H1L1 MaE11 Fc-KO
Take B2: the equilibrium dissociation constant (Kd) with Fc region of IgE amounted to 0.064 nM. Besides, the binding result in assay [2] was “no binding”.

B3: MaE11_H1L1_IgG1_S267E/L328F (antibody)
heavy: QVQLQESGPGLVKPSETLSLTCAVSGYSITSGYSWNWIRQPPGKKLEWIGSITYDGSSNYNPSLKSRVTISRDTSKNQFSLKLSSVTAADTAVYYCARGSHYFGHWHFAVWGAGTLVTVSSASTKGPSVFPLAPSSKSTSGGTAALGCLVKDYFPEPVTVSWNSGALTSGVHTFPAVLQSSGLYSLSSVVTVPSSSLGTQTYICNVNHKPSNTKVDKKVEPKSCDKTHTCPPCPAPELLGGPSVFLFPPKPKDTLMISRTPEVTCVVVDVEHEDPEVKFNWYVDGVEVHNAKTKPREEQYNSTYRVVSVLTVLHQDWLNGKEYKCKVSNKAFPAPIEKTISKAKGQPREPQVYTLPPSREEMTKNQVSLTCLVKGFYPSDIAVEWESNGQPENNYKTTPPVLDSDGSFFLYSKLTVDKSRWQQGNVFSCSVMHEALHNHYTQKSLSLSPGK
light: DIQLTQSPSSLSASVGDRVTITCRASQSVDYDGDSYMNWYQQKPGQPPKLLIYAASYLGSEIPARFSGSGSGTDFTLTISSLQPEDFATYYCQQSHEDPYTFGAGTKLEIKRTVAAPSVFIFPPSDEQLKSGTASVVCLLNNFYPREAKVQWKVDNALQSGNSQESVTEQDSKDSTYSLSSTLTLSKADYEKHKVYACEVTHQGLSSPVTKSFNRGEC
notes: anti-IgE
On to B3, for which the Kd with Fc region of IgE is 0.063 nM; in assay [2], 5.6 nM. Moreover, the Fold in assay [1] is 366.
